{"source": "paper PMC9679424", "about": "“The CARD8 T60 variant associates with NLRP1 and negatively regulates its activation” (Frontiers in Immunology, 2022)", "biological_target": "T1, NLRP1-FLAG (human, UniProt Q9C000-1 1-1473)", "T1 construct": "NLRP1, human, UniProt Q9C000-1, full length; The host of the purified protein is told only as a mammalian expression system; also called full-length NLRP1; Flag-tagged NLRP1; source: HEK 293T, transiently transfected, in lysate; also purified using mammalian protein expression system", "T1 sequence (looked up)": "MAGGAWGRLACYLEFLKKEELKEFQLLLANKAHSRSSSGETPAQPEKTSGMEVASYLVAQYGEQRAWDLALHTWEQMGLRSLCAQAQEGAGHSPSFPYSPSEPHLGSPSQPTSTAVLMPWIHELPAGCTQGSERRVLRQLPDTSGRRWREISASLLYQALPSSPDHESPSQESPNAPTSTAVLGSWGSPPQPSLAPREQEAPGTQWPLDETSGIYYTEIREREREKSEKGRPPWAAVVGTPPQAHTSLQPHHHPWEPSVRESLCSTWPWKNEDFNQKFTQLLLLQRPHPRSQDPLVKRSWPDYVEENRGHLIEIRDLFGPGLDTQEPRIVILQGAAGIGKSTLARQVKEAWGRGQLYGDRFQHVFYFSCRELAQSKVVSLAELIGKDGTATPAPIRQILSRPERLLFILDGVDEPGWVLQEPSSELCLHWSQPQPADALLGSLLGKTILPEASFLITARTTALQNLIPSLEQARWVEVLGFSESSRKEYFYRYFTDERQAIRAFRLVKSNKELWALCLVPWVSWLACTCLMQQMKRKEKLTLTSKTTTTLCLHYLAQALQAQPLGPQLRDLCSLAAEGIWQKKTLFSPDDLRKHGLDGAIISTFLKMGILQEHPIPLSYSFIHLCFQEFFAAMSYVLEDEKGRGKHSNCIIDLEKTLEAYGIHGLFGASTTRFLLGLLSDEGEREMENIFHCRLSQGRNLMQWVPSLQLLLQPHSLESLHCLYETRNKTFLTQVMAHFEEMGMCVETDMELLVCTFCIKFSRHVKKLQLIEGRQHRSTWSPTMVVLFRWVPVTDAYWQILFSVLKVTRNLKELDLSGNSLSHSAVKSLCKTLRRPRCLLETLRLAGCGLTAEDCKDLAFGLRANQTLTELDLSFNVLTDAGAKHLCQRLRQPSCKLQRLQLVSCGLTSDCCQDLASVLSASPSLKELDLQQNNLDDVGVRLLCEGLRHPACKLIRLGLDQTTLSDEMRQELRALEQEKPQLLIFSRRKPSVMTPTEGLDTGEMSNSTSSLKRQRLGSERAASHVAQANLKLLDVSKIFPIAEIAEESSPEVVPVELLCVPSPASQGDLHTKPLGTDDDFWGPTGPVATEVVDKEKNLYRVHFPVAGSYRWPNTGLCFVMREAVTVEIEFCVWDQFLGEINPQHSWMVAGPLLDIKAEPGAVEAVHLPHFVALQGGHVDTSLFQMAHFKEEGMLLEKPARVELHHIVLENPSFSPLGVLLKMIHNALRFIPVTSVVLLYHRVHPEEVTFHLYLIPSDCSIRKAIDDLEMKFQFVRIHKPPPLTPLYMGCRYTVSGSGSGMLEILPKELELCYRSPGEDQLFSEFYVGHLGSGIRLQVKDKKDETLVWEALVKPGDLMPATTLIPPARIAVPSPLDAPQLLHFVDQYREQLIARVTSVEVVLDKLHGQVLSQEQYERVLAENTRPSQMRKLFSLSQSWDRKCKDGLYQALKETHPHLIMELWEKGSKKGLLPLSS", "assay": "co-IP; HEK 293T cells transiently co-transfected, 28 hours; lysate (20 mM Tris-HCl pH 7.5, 100 mM KCl, 5 mM MgCl2, 0.3% NP-40); precipitation by the Strep tag of CARD8-T60-Strep (anti-Strep; Strep-Tactin gel) overnight at 4 °C; immunoblotting", "conditions": "partners not purified"}
{"binder": "CARD8-T60-Strep (natural protein, human, UniProt Q9Y2G2-5 1-537, looked up, CARD8, T60 isoform, human, UniProt Q9Y2G2-5, full length; The host of the purified protein is told only as a mammalian expression system; also called CARD8-Strep; T60 isoform of CARD8; source: HEK 293T, transiently transfected, in lysate; also purified using mammalian protein expression system) MEKKECPEKSSSSEEELPRRDSGSSRNIDASKLIRLQGSRKLLVDNSIRELQYTKTGIFFQAEACVTNDTVYRELPCVSETLCDISHFFQEDDETEAEPLLFRAVPECQLSGGDIPSVSEEQESSEGQDSGDICSEENQIVSSYASKVCFEIEEDYKNRQFLGPEGNVDVELIDKSTNRYSVWFPTAGWYLWSATGLGFLVRDEVTVTIAFGSWSQHLALDLQHHEQWLVGGPLFDVTAEPEEAVAEIHLPHFISLQAGEVDVSWFLVAHFKNEGMVLEHPARVEPFYAVLESPSFSLMGILLRIASGTRLSIPITSNTLIYYHPHPEDIKFHLYLVPSDALLTKAIDDEEDRFHGVRLQTSPPMEPLNFGSSYIVSNSANLKVMPKELKLSYRSPGEIQHFSKFYAGQMKEPIQLEITEKRHGTLVWDTEVKPVDLQLVAASAPPPFSGAAFVKENHRQLQARMGDLKGVLDDLQDNEVLTENEKELVEQEKTRQSKNEALLSMVEKKGDLALDVLFRSISERDPYLVSYLRQQNL", "values": [{"measurement": "binding result", "value": "binds"}]}
